Assay results taken from patent US20250320281A1.

Assays:
[1] = target: WT JR-FL gp120 (HIV-1); assay: ELISA, antigen-coated wells
[2] = target: HIV-1 Env of isolate MGRM-C-012 (HIV-1); assay: cell-based or functional assay
[3] = target: HIV-1 Env of pseudovirus isolate MGRM-G-016 (HIV-1); assay: cell-based or functional assay
[4] = target: HIV-1 NL43 Env (pseudovirus) (HIV-1); assay: cell-based or functional assay
[5] = target: HIV-1 92RW020 Env (pseudovirus) (HIV-1); assay: cell-based or functional assay
[6] = target: HIV-1 Env of pseudovirus isolate MGRM-G-009 (HIV-1); assay: cell-based or functional assay
[7] = target: HIV-1 Env of pseudovirus isolate MGRM-G-013 (HIV-1); assay: cell-based or functional assay
[8] = target: HIV-1 Env of isolate MGRM-C-025 (HIV-1); assay: cell-based or functional assay
[9] = target: HIV-1 92TH021 Env (pseudovirus) (HIV-1); assay: cell-based or functional assay
[10] = target: HIV-1 APV6 Env (pseudovirus) (HIV-1); assay: cell-based or functional assay
[11] = target: HIV-1 93IN905 Env (pseudovirus) (HIV-1); assay: cell-based or functional assay
[12] = target: HIV-1 92UG005 Env (pseudovirus) (HIV-1); assay: cell-based or functional assay
[13] = target: HIV-1 MGRM-C-026 Env (pseudovirus) (HIV-1); assay: cell-based or functional assay
[14] = target: HIV-1 Env of isolate MGRM-C-004 (HIV-1); assay: cell-based or functional assay
[15] = target: HIV-1 Env of isolate MGRM-C-015 (HIV-1); assay: cell-based or functional assay
[16] = target: HIV-1 Env of isolate MGRM-C-006 (HIV-1); assay: cell-based or functional assay
[17] = target: HIV-1 Env of isolate MGRM-C-014 (HIV-1); assay: cell-based or functional assay
[18] = target: HIV-1 MGRM-A-010 Env (pseudovirus) (HIV-1); assay: cell-based or functional assay
[19] = target: HIV-1 MGRM-C-027 Env (pseudovirus) (HIV-1); assay: cell-based or functional assay
[20] = target: HIV-1 Env of pseudovirus isolate MGRM-G-014 (HIV-1); assay: cell-based or functional assay
[21] = target: HIV-1 Env of isolate MGRM-C-001 (HIV-1); assay: cell-based or functional assay
[22] = target: envelope of aMLV pseudovirus (negative control); assay: cell-based or functional assay
[23] = target: HIV-1 Env of isolate MGRM-C-010 (HIV-1); assay: cell-based or functional assay
[24] = target: HIV-1 Env of isolate MGRM-C-007 (HIV-1); assay: cell-based or functional assay
[25] = target: HIV-1 94UG103 Env (pseudovirus) (HIV-1); assay: cell-based or functional assay
[26] = target: HIV-1 Env of pseudovirus isolate MGRM-G-027 (HIV-1); assay: cell-based or functional assay
[27] = target: HIV-1 Env of pseudovirus isolate MGRM-G-004 (HIV-1); assay: cell-based or functional assay
[28] = target: HIV-1 92UG024 Env (pseudovirus) (HIV-1); assay: cell-based or functional assay
[29] = target: HIV-1 Env of isolate MGRM-C-008 (HIV-1); assay: cell-based or functional assay
[30] = target: HIV-1 Env of isolate MGRM-C-024 (HIV-1); assay: cell-based or functional assay
[31] = target: HIV-1 Env of isolate MGRM-C-023 (HIV-1); assay: cell-based or functional assay
[32] = target: HIV-1 MGRM-C-028 Env (pseudovirus) (HIV-1); assay: cell-based or functional assay
[33] = target: HIV-1 Env of pseudovirus isolate MGRM-G-006 (HIV-1); assay: cell-based or functional assay
[34] = target: HIV-1 CMU02 Env (pseudovirus) (HIV-1); assay: cell-based or functional assay
[35] = target: HIV-1 Env of isolate MGRM-C-017 (HIV-1); assay: cell-based or functional assay
[36] = target: HIV-1 Env of isolate MGRM-C-013 (HIV-1); assay: cell-based or functional assay
[37] = target: HIV-1 Env of isolate MGRM-C-019 (HIV-1); assay: cell-based or functional assay
[38] = target: HIV-1 Env of isolate MGRM-C-009 (HIV-1); assay: cell-based or functional assay
[39] = target: HIV-1 Env of isolate MGRM-C-005 (HIV-1); assay: cell-based or functional assay
[40] = target: HIV-1 Env of pseudovirus isolate MGRM-G-019 (HIV-1); assay: cell-based or functional assay
[41] = target: HIV-1 Env of pseudovirus isolate MGRM-G-001 (HIV-1); assay: cell-based or functional assay
[42] = target: HIV-1 Env of isolate MGRM-C-020 (HIV-1); assay: cell-based or functional assay
[43] = target: HIV-1 Env of pseudovirus isolate MGRM-G-011 (HIV-1); assay: cell-based or functional assay
[44] = target: HIV-1 Env of pseudovirus isolate MGRM-G-017 (HIV-1); assay: cell-based or functional assay
[45] = target: HIV-1 Env of isolate MGRM-C-002 (HIV-1); assay: cell-based or functional assay
[46] = target: HIV-1 JRCSF Env (pseudovirus) (HIV-1) (UniProt P20871); assay: cell-based or functional assay
[47] = target: HIV-1 Env of isolate MGRM-C-022 (HIV-1); assay: cell-based or functional assay
[48] = target: HIV-1 MGRM-D-018 Env (pseudovirus) (HIV-1); assay: cell-based or functional assay
[49] = target: HIV-1 Env of pseudovirus isolate MGRM-G-015 (HIV-1); assay: cell-based or functional assay

**Q.** 4877_D15 (PGT-122) (antibody) was tested. Which EC50 [1] did it give?
**A.** 0.3 mg/L

**Q.** And the neutralization IC50 [2]?
**A.** 2 mg/L

**Q.** And the IC50 (µg/mL), pseudovirus neutralization [3]?
**A.** > 50 µg/mL

**Q.** What about the neutralization IC50 (pseudovirus) [4] of the same substance?
**A.** > 10 mg/L

**Q.** And the neutralization IC50 (pseudovirus) [5]?
**A.** 0.0072 mg/L

**Q.** What about the IC50 (µg/mL), pseudovirus neutralization [6] of the same substance?
**A.** 0.514 µg/mL

**Q.** And the IC50 (µg/mL), pseudovirus neutralization [7]?
**A.** 3.45 µg/mL

**Q.** What about the neutralization IC50 [8] of the same substance?
**A.** 8.69 mg/L

**Q.** What about the neutralization IC50 (pseudovirus) [9] of the same substance?
**A.** > 10 mg/L

**Q.** What about the neutralization IC50 (pseudovirus) [10] of the same substance?
**A.** 0.0851 mg/L

**Q.** And the neutralization IC50 (pseudovirus) [11]?
**A.** 0.0138 mg/L

**Q.** What about the neutralization IC50 (pseudovirus) [12] of the same substance?
**A.** > 10 mg/L

**Q.** And the neutralization IC50 (pseudovirus) [13]?
**A.** 0.0089 mg/L

**Q.** What about the neutralization IC50 [14] of the same substance?
**A.** 0.02 mg/L

**Q.** And the neutralization IC50 [15]?
**A.** > 50 mg/L

**Q.** What about the neutralization IC50 [16] of the same substance?
**A.** 0.018 mg/L

**Q.** What about the neutralization IC50 [17] of the same substance?
**A.** > 50 mg/L

**Q.** And the neutralization IC50 (pseudovirus) [18]?
**A.** 1.68 mg/L

**Q.** And the neutralization IC50 (pseudovirus) [19]?
**A.** 0.0388 mg/L

**Q.** And the IC50 (µg/mL), pseudovirus neutralization [20]?
**A.** 0.008 µg/mL

**Q.** And the neutralization IC50 [21]?
**A.** 19.1 mg/L

**Q.** And the IC50 (µg/mL), pseudovirus neutralization [22]?
**A.** > 50 µg/mL

**Q.** And the neutralization IC50 [23]?
**A.** > 50 mg/L

**Q.** And the neutralization IC50 [24]?
**A.** 3.35 mg/L

**Q.** And the neutralization IC50 (pseudovirus) [25]?
**A.** 1.46 mg/L

**Q.** And the IC50 (µg/mL), pseudovirus neutralization [26]?
**A.** 0.606 µg/mL

**Q.** And the IC50 (µg/mL), pseudovirus neutralization [27]?
**A.** 2.15 µg/mL

**Q.** What about the neutralization IC50 (pseudovirus) [28] of the same substance?
**A.** > 10 mg/L

**Q.** What about the neutralization IC50 [29] of the same substance?
**A.** 0.028 mg/L

**Q.** What about the neutralization IC50 [30] of the same substance?
**A.** 0.102 mg/L

**Q.** What about the neutralization IC50 [31] of the same substance?
**A.** 0.027 mg/L

**Q.** And the neutralization IC50 (pseudovirus) [32]?
**A.** 2.06 mg/L

**Q.** And the IC50 (µg/mL), pseudovirus neutralization [33]?
**A.** > 50 µg/mL

**Q.** What about the neutralization IC50 (pseudovirus) [34] of the same substance?
**A.** > 10 mg/L

**Q.** What about the neutralization IC50 [35] of the same substance?
**A.** 0.015 mg/L

**Q.** What about the neutralization IC50 [36] of the same substance?
**A.** 32.6 mg/L

**Q.** What about the neutralization IC50 [37] of the same substance?
**A.** > 50 mg/L

**Q.** And the neutralization IC50 [38]?
**A.** > 50 mg/L

**Q.** What about the neutralization IC50 [39] of the same substance?
**A.** 0.027 mg/L

**Q.** What about the IC50 (µg/mL), pseudovirus neutralization [40] of the same substance?
**A.** 0.016 µg/mL

**Q.** What about the IC50 (µg/mL), pseudovirus neutralization [41] of the same substance?
**A.** 0.005 µg/mL

**Q.** What about the neutralization IC50 [42] of the same substance?
**A.** 14 mg/L

**Q.** What about the IC50 (µg/mL), pseudovirus neutralization [43] of the same substance?
**A.** 31.3 µg/mL

**Q.** And the IC50 (µg/mL), pseudovirus neutralization [44]?
**A.** 0.032 µg/mL

**Q.** And the neutralization IC50 [45]?
**A.** 0.022 mg/L

**Q.** And the neutralization IC50 (pseudovirus) [46]?
**A.** 0.0727 mg/L

**Q.** And the neutralization IC50 [47]?
**A.** 0.012 mg/L

**Q.** And the neutralization IC50 (pseudovirus) [48]?
**A.** 0.0115 mg/L

**Q.** What about the IC50 (µg/mL), pseudovirus neutralization [49] of the same substance?
**A.** > 50 µg/mL
